Measurements reported in the nanobody polyreactivity screen of Harvey et al. (2022).

Assay: yeast display, Sf9 membrane polyspecificity reagent, FACS + sequencing; frameworks hold sequencing errors
Procedure, shortened: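 Synthetic nanobody libraries on Saccharomyces cerevisiae BJ5465 were galactose-induced for 36–48 hours, stained 1 hour at 4 °C with 10% biotinylated, detergent-solubilized Sf9 membrane reagent and enriched on streptavidin microbeads. FACS then separated cells into low and high (top ~1%) gates by anti-HA (expression) and streptavidin (reagent binding) fluorescence. Genes were colony-PCR amplified, MiSeq 2 × 250 sequenced and CDR-length filtered. A clone's polyreactivity label is that of its gate of origin.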

Sequence | polyreactivity (PSR sort gate)
QVQLVESGGCLVQAGGSLRLSCAASGRIFYNYAMGWYRQAPGKERELVAAISGSGGSTYYADSVKGRFTISRDNAKNTVYLQMNSLKPEDTAVYYCSTSGPQYYSRNFDYWGQGTQVTVSS | low polyreactivity
QVQLVESGGGLVQAGGSLRLSCAASGRTFYFNAMGWYRQAPRKESELVAAISSGASTYYADSVKGRFTISRDNAKNTVNLQMISLKPEDTAVYYCAAEFWTQWSGYEYWGQGTQVTVSS | high polyreactivity
QVQLVESGGGLVQAGGSLRLSCAASGSIFLPYAMGWSRQAPGTEREFVAAIRWSTGRTFYADSVKGRFTISRDNAKNTVYLQMNSLKPEDTAVYYCAAKYYDSWYTYRYDYWGQGTQVTVSS | high polyreactivity
QVQLVESGGGLGQAGGSLRLSCAASGIIFVENAMGWNRQAPGKERELVATITSGDTTNYADSVKGRFTISRDNAKNTVYLQMNSLKPEDTAVYYCKKVVPDDAYIFAYDYWGQGTQVTVSS | low polyreactivity
QVQLVESGGGLVQAGGSLRLSCAASGRTFPYNAMGWYRQAPGKERELVAAISSGGTTNYADSVKGRFTISRDNAKNTVYLQMNSLKPEDTAVYYCAADSVDSSQFRRDYWGQGTQVTVSS | low polyreactivity
QVQLVDSGGGLVQAGGSLRLSCSASVRTFRGTAMGWYRHAPGKEREMVAPITYRTGSKYYPDSVKGRFTNSRDNAKNTVYLLLNSLKPEDSAVYYCAAVSGRSYDKDYFWGQGTQVTVSS | high polyreactivity
QVQLVESGGGLVQAGGSLRLSCAASGSIFRIYAMGWYRQAPGKERELVAAISWSGGSTYYADSVKGRFTISRDNANNTVYLQMNSRKPEDTAVYYCAARPRYKYSAYEYWGQGTQVTVSS | high polyreactivity
QVQLVESGGGLVQAGGSLRLSCAASGSTFLRYAMGWYIQAPGKERELVATISTSRGSTHYADSVKGRFTISRYNAKNTVYLQMNSLKPEDSAVYYCATRGGKWYYRTRQPYPYAMDYWGQGTQVTVSS | high polyreactivity
QVQLVESGGGLVQAGGSLRISCAASGSTFVPNTMGWYRQAPGKERELVAAITYSGGSTYYADSVKGRFTISRDYAKNTVYLLMNSLKPEDTEVYYCAAEGTTWYYDMDYWGQGTQVTVSS | low polyreactivity
QVQLVESGGGLVQAGGSLRLSCAASGTIFGKYAMGWYRQAPGKERELDAAISRAGGRTYYADSVKGRFTISRDNAKNTVYLQMNSLIPEDTAVYYCNAGNLHSGGQRWNLYYWGQCTQVTVSS | high polyreactivity
QVQLVESGGGLVQAGGSLRLSCAASGGNFYYYVMGWYRQAPGKERELVAAITWSGGSTSYADSVKGRFTISRDNAKNTVYLQMNSLKPEDTAVYYCNADSTTQDYDYWGQGTQVSVSS | low polyreactivity
QVQLVESGGGLVQAGGSLRLSCAASGRIFSKKAMGWYRQAPGKERELVARIRWTGGITYYADSVKGRFTISRDNAKNTVYLQMNSLKPEDTAVYYCAADYLWGTWTTYFRPLLYDYWGQGTQVTVSS | low polyreactivity
QVQLVETGGGLVQAGGSLRLSCAASGFTIRRYTMGWYRQAPGKERELVAAITRGVRTYYADSVKGRFTISRDNAKNTVYLQMNSLKPEDTAVYYCNTAQQSERDYWGQGTQVTVSS | high polyreactivity
QVQLVESGGGLVQAGGSLRLSCAASGRTFDVYAMGWDRQAPGKERELVAASTSGGSTYYADSVKGRFTISRDNAKNTVYLQMNSLKPEDTAVYYCATDVDKSLYDYWGQGTQVTVSS | low polyreactivity
QVQLVESGGGLVQAGGSLRLSCAASGSTFWPYAMGWYRQAPGKERELVARINSGGNTNYADSVKGRFTISRDNAKNTVYLQMNSLKPEDTAVYYCAVRSLYEPRVYYRWVVGDGNYWGQGTQLTVSS | low polyreactivity
QVQLVESGGGLVQAGGSLRLSCAASGYTFRYNAMGWYRQAPGKERELVAAISSSGGRTYYADSVKGRFTISRDYAKNTVYLQMNSLKPEDTAVYYCAADSSVKYWRYQAAYDYWGQGTQVTVSS | high polyreactivity
QVQLVESGGGLVQAGGSLRLSCAASGSIFYGYAMGWYRQAPRKERELVAAISSSGGSTYYADSVKGRFTISRDTAKNTVYLQMNSLKPEDTAVSYCARSRSYWGIVYGRYDYWGQGTQVTVSS | high polyreactivity
QVQLVESGGGLVQAGGSLRLSCAASGRIFNSYAMGWSRQAPGKERELVAAISSGGSTYYADSVKGRFTISRDNAKNTVYLQMKRLKPEDTAVYYCAARIWNGRGRKLGYGYDYWGQGTQVTVSS | low polyreactivity
QVQLVESGGGLVQSGGSLRLSCAASGFIFLNYAMGWYRQAPGKERQLVAAITSGGNTTYADSVKGRFTISRDNAKNTVYLQMNSLKPEDTAVYYCAAEWASRYAVFWAYPKYDYWGQGTQVTVAS | low polyreactivity
QLQLVESGGGLVKAGGSLRLSCAASGSTFGGNAMGWYRQAPGKERELVASISSSGGRTYYADSVKGRFTISRDNAKNTVYLQMNSLTPEDTAVYYCARRYYYQYRYDYWGQGTQVTVSS | high polyreactivity
QVQLVESGGGLVQAGGSLRLSCAASGRTFGYNAMGWYSQAPGKETELVAAINWSDASTYYADSVKGRFTISRDNAKNTVSLQMNSLKPEDTAVYYCAADYSYIYGFDYWGQGTLVTVSS | low polyreactivity
QVQLVESGGGLVQAGGSLRLSCAASGSIFYSNAMGWYRQAPGKERELVAAIRRSGGSTYYADSVKGRFTISRDNAKNTVYLQMNSLKPEDTEVYYCAARYSGTYSFYLSVGSRGYNYWGQGTQVTVSS | high polyreactivity

Sequence | polyreactivity (PSR sort gate)
QLQLVESGGGLVQAGGSLRLSCAASGSTLDRYVMGWYRPAPGKERELVAAISRNGGSTYYADSVKGRFTISRDIAKNTVYLQMNSLKPEDTAVYYCAAYIYQSPTRGGGYWGQGTQVTVSS | high polyreactivity
QVQLVESGGGLVQAGGSLRLSCAASGSTIRGYAMGWYRQVTGKEREMGADISWSGTSTKYADSVKGRFTISRDNAKNTVYLQMNSLKPEDTAVYYCAKRYVRFPWRMDYWGQGTQVTVSS | high polyreactivity
QVQLVESGGGLVQAGGSLRLSCAASGFIFRDNAMGWYRQSPGKERELVAAISERGGRTYYADSVKGRFTISRDNAKNTVYLQMNSLKPEDTAVYYCADEDIAKFYYWGQGTQVTVSS | high polyreactivity
QVQLVESGGGLVQAGGSLRLSCAASGFTFTAYAMGWYRQAPGKERELVAAISYRGGRTNYAYSVKGRFTISRDYAKYTVYLQMNSLKPEDTAVYYCAARPRISTREMDYWGQGTQVTVSS | high polyreactivity
QVQLVESGGGLVQAGGSLRLSCAASGSIFRGNAMGWYRQAPGKERELVASISYSGGSTYYADSVKGRFTISRDTAKNTVYLQMNSLKPEDTAVYYCAADESVAYPYSGYQYYRHIYDYWGQGTQVTVSS | low polyreactivity
QVQLVESGGGLVQAGCSLRISCAASGSTFYPYAMGWYRQAPGKERELVAAISSGGSTYYADSVKGRFTISRDNAKNTVYLQMNSVKPEDTAVYYCAADFYYAYYWGQGTQVTVSS | low polyreactivity
QVQLVESGGGLVQAGGSLRLSCAASGRIFYQYAMGWYRQAPGKEREMVAAISRRGASTYYADSVKGRFTISRDNAKNTVYLQMNSLKPEDTAVYYCAAEPRAYSHQYNYWGQGTQVTVSS | high polyreactivity
QDQLVESGGGLVQAGGSLRLSCAASGLTFKYYTMGWYRQAAGKERELVAYISRTGRTSYADSVKGRFTISRDNAKNTVYLQMNSLNPEDTGVYYCNADFYVSGYSLFDSIYDYWGQGTQVTVSS | high polyreactivity
QVQLVESGGGLVQAGGSLRLRCAASGSTFHIYAMGWYRQAPGKERELVAAISKGGGNTYYADSVKGRFTISRDNAKNPVYLQLNSLKPEDTAGYYCAAVPTRYRSYSYTYGGYNYWGQGTQVTVSS | high polyreactivity
QVQLVESGGGLVQAGGSLRLSCAASGRIFLFYAMGWYRQAPGKERELVAAISIGSTDYADSVKGRFTISRDNAKNTVYLQMNSLKPEDTAVYYCAADFIITYDEYDYWGQGTQVTVSS | high polyreactivity
QVQLVESGGGLVHAGGSLRLSCAASVSTFLFYAMGWYRQAPGKEREFVAAITWSGGSTYYADSVKGRFTISRDNAKNTVYLQMNSLKPEDTAVYYCNGYYVPTTGREFYFAFYYWGQGTQVTVSS | low polyreactivity
QVQLVESGGGLVQAGGSLRLSCAASGSNFSRYAMGWYRQAPGKERDLVAAITSTGDSTSYADSVKGRFTISRDNAKNTVYVQMNSLKPEDTAVYYCAIVYVYRYVIPYDYWGQGTQVTVSS | low polyreactivity
QVQLVESGGGLVQAGGSLRLSCAASGSTFRFYAMGWYRQAPGKERELVAAISSGGSSTYYADSVKGRFTISRDNAKNTVYLQMNSLKPEDTAVYYCAADSYVVRWRERDYWGQGTQVTVSS | low polyreactivity
QVQLVESGGGLVQAGGSLRLSCAASGFIFERNTMGWYRQAPGKERELVATISRSAGNTYYADSVKGRFTISRDNANNTVYLQMNSLKPEDSAAYYCAKDHRTRGYDYWGQGTQVSVSS | low polyreactivity
QVQLVESGGGLVQAGGSLRLSCAASGSTFQTYAMGWYRQPPGKERELVAALNWRSGSTYYADSVKGRFTISRDNATNTVYLLMTSVKPEDTAVYDCARRSTGYTFDVSSMDYWGQGTQVTLSS | low polyreactivity
QVQLVESGGGLFQAGGSLRLSCAASGSIFGDYAMGWYRQAPGKERELVAAITSSGGITYYADSVKGRFTISRDNAKNTVYLQMNSLKPEDTAVYYCAAYGYGSNYRYTCYYYWGQGTQVTVSS | low polyreactivity
QVQLVESGGGLVQAGGSLRLSCAASGFTFYLYAMGWYRQAPGKERELVAAISSRGGTTYYADSVKGRFTISRDNAKNTVYLQMNSLKPEDTAVYYCNVARVYHIYDYWGQGTQVTVSS | high polyreactivity
QVQLVESGGGLVQAGGSLRLSCAASGSIFCDKAMGWYRQAPGKERELVAAISIVGSTSYADSVKGRFTISRDNANNTVYLQMNSLKPEDTAVYYCAAENVRSDTGFDYWGQGTQVTVSS | low polyreactivity
QVQLVESGGGLVQAGGSLRLSCAASGSIFAYYAMGWYRQAPGKERELVADITSSGGITYYADSVKGRFTISRDNAKNTVYLQMISLKPEDTAVYYCNADSWAIGGGSYPFDYWGQGTQVTVSS | low polyreactivity
QVQLVESGGGLVQAGGSLRLSCAASGRTFWSNAMGWYRQAPGKERELVADITLSGGRTYYADSVKGRFTISRDNAKNTVYLHMNILKPEDTAVYYCAASATPSGVGMDYWGQGTQVTVSS | low polyreactivity
HVQHVESGGGLVQAGGSLRVSCAASGSTFYYNAMGWYRQAPGKERELVARISRSGASTYYADSVKGRFTISRDIAKNSVYLQMNSLKPEDTAVYYCATRNLGHERWYYYWGQGTQVTVSS | high polyreactivity
